These are literature values, as cited in paper PMC6155283.

Broadly, the Kd is a measure of binding affinity in units of concentration.

Several values for one entry are separate records, joined by “and”; a condition that tells them apart may be missing. Equal entries are not always repeated.

The series has as its target GRα (Homo sapiens) (UniProt P04150).

Take GRα (from UniProt P04150): the Kd was 7.4 µM and 3 µM.
